The experiment addresses FLAG-HA-HA (F2H)-tagged tbRAP1 at its endogenous locus (Trypanosoma brucei (endogenous locus in T. brucei cells)). Description: co-IP.

Substance endogenous tbTRF (natural protein) had a percent co-immunoprecipitated of 10%.

For the origin of these results see paper PMC2673096.
